This note sets out measurements from patent publication US20240076386A1 (Pfizer, published 2024).

The target in assay [1] is T1, mouse E-selectin extracellular domain with 10 His purification tail (mouse, UniProt Q00690 22-557).
T1 construct: also called soluable mouse E-selectin extracellular domain; muE-Selctin
T1 sequence: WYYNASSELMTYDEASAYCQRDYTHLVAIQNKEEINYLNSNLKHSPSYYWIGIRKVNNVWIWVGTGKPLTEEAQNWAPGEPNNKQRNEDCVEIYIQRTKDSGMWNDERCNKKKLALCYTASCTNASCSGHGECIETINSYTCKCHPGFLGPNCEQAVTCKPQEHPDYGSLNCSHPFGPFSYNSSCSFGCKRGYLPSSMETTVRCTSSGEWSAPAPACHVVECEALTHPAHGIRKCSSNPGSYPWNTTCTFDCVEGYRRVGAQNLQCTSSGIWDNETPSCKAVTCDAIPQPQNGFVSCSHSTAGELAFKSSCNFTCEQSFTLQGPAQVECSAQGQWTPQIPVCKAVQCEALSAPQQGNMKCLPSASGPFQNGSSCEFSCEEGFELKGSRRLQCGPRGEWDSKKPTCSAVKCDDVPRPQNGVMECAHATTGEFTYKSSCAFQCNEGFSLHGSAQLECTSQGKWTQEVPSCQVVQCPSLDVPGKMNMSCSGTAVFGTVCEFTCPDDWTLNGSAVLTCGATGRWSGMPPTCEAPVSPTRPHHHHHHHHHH
As to the kind of experiment: antigen binding ELISA, HRP detection. How it is done: 384-well Maxisorp plates were used to capture the human and mouse His-tagged recombinant E-selectin polypeptides. The polypeptides were incubated with chimeric antibodies of varying concentrations and detected with HRP-labeled anti-human IgG1 antibodies.
On the technique in general: ELISA stands for enzyme-linked immunosorbent assay.

Assay [2] deals with T2, soluble recombinant human L-selectin (human, UniProt P14151 39-332, limits assumed).
T2 sequence (looked up): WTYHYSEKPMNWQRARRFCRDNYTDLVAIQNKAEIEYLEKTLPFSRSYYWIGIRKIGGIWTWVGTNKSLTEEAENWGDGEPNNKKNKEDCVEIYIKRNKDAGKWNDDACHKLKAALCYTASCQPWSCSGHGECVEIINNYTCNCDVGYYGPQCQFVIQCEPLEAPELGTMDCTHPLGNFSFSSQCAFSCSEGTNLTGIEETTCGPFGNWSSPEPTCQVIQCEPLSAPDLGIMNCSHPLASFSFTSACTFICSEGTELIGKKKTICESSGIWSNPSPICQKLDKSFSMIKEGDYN
As to the kind of experiment: direct binding ELISA on immobilized human L-selectin, absorbance at 450 nm. The procedure:
Recombinant histidine tagged human P-, E- or L-selectin (Sino Biologicals), mouse E-selectin (Sino Biologicals), rat E-selectin (Sino Biologicals) and Cynomolgus monkey E-selectin (Sino Biologicals) stock solutions were prepared to a final concentration of 1 μg/mL in phosphate buffered saline without calcium and magnesium. Controls included an L-selectin directed antibody (BioLegend; 304811) or P-selectin directed antibody or a negative control IgG. One hundred μL per well of the diluted recombinant selectin proteins were added into a Ni-NTA HisSorb 96 well plate (Qiagen; 35061). Plates were incubated on an orbital shaker at room temperature for 2 hours. Following the incubation, the plates were washed 3 times with 200 μL of wash buffer (50 mM TRIS [trisaminomethane]; 150 mM sodium chloride; 0.05% polysorbate 20, pH 7.4). To decrease nonspecific binding, plates were treated with 200 μL of blocking buffer (BD Opteia buffer; 555213; BD Biosciences), incubated on an orbital shaker for 1 hour at room temperature and washed as described above. […] One hundred μL specific detection antibodies (described below) were added and incubated for 1 hour: [0556] […] Anti L-selectin and anti-rat-E-selectin antibodies were detected using 1 to 25000 dilution of Peroxidase-conjugated AffiniPure Goat Anti-Mouse IgG (H+L); (Jackson ImnnunoResearch Lab).
Plates were washed and 100 μL per well of 1-Step Ultra TMB substrate (Thermo Scientific) was added and incubated for 5 minutes at room temperature. Reactions were stopped with 100 μL of 2 M sulfuric acid and absorbance read at 450 nm (Spectramax M5e).

The target of assay [3] is T3, human E-selectin coated on the plate of the competition binding ELISA (human, UniProt P16581 22-556, limits assumed).
T3 sequence (looked up): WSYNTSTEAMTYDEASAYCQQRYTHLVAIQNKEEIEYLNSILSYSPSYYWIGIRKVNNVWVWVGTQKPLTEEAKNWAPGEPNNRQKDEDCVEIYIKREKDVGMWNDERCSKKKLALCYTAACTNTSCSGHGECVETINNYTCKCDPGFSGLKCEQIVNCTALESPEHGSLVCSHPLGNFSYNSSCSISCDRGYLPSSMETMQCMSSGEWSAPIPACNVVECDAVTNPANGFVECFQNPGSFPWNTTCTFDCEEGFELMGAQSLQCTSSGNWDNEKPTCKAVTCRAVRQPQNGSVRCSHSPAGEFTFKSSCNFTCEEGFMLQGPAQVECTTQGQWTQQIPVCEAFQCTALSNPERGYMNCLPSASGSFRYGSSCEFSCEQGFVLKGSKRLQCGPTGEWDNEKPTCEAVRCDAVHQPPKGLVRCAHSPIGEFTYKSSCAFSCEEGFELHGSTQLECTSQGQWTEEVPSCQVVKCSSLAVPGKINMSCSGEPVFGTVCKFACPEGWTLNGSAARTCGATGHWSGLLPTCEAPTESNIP
In words: competition ELISA (Biotin-164 competitive ELISA) on plate-coated human E-selectin; competitor: biotinylated antibody 0164, OD450; forced degradation samples T0, T2, T4 weeks at 40 C in Tris, His or Glu buffer. How it is done: To additionally asses stability of the forced degradation samples, the activity of the stressed samples was evaluated in a competition binding ELISA. […] The human E-selectin was stored in PBS with Ca/Mg at 500 μg/mL and was diluted with PBS with Ca/Mg to a concentration of 1 μg/mL. This was added to a 384 well MaxiSorp plate, sealed and incubated at 4° C. with gentle shaking overnight. The next day the reagents in each well were removed, followed by addition of 50 μL of blocking buffer (1% BSA in PBS with Ca/Mg) to each well. The wells were sealed and incubated at room temperature for about 1 hour with gentle shaking.
Next, the wash plate was blocked with 1% BSA with PBST (0.05% Tween) on a […] for 3 cycles using 80 μL for each wash. The plate was tapped on a paper towel to drain. […] The wash step was repeated with 3 cycles of 2 washes. Then, dilute Streptavidin-HRP (˜1/7500 diluted in blocking buffer) was added to each well and the plate was incubated at room temperature with gentle shaking ˜40 minutes to 1 hour. The wash step was again repeated with 3 cycles of 2 washes, tapped dry and followed by the addition of 25 μL of TMB substrate (one component HRP microwell substrate). This was followed by the addition of 25 μL of 0.18 M sulfuric acid to stop the reaction when the color reached saturation (determined by observing the color development). The OD450 measurement of the plate was then read on the Envision plate reader, and the data was analyzed with GraphPad, Prism7.

What is called EC50 is the concentration giving half of the maximal effect.

B1: anti-E-selectin antibody 0180 chimera (antibody, human IgG1, kappa, V domains shown)
VH: EVQLQQSGAELGKPGTSVKLSCKVSGYKIRSSYMHWVNQRPGKGLEWIGRIDPANGNTIYGDKFKSKATLTSDTSSNTAYIQLSQLKSDDTAIYFCAIDIGTTFDYWGQGVMVTVSS
VL: DIQMTQSPSFLSASVGDRVTINCKASQHINRYLNWYQQKLGEAPKLLIYDANNLQTGIPSRFSGSGSGTDFTLTISSLQPEDVATYFCLQHNSWPNTFGAGTKLELKR
notes: rat VH/VL on effector-null human IgG1 and human kappa
As for B1, the EC50 in assay [1] was above 133 nM.

B2: anti-E-selectin antibody 0164 chimera (antibody, human IgG1, kappa, V domains shown)
VH: EVQLQQSGAEFGKPGTSVKLSCKVSGYNIRSSYMHWVNQRPGKGLEWIGRIDPANGNTIYAEKFKIKAILTADSSSNTAYMQLSQLKSDDTAIYFCAMDLYSTSEYWGQGVMVTVSS
VL: DIQMTQSPSFLSASVGDRVTINCKTSQNINRYLNWYQQKLGEAPKLLIYNANSLQTGIPSRFSASGSGTDFTLTINSLQPEDVATYFCLQDNSWPLTFGSGTKLEIKR
notes: as for B1
Regarding B2, the EC50 in assay [1] was above 133 nM.

B3: anti-E-selectin antibody 0158 chimera (antibody, human IgG1, kappa, V domains shown)
VH: QVQLKESGPGLVQPSETLSLTCTVSGFSISTYNVHWLRQPPGKGLEWMGMMWSGGSPDYNSALKSRLSISRDTSKNQVFLKMNSLQSEDTTTYYCARWGGGFDYWGQGVMVTVSS
VL: DIVLTQSPTTLSVTPGETVSLSCRASHSIGTNLHWYQQKTNESPRLLIKFTSQSISGIPSRFSASGSGTDFTLNINNVEFDDVSSYFCQQTQSWPLTFGSGTKLEIKR
notes: as for B1
Regarding B3, the EC50 in assay [1] is above 133 nM.

B4: anti-E-selectin antibody 0159 chimera (antibody, human IgG1, kappa, V domains shown)
VH: EVQLQQSGAELGKPGTSVKLSCKVSGYNIRSTYMHWVSQRPGKGLEWIGRIDPANGNTIYAEKFKRKATLTADTSSNTAYMQLSQLKSDDRAIYFCAMEVRVSFEYWGQGVMVTVSS
VL: DIQMTQSPSFLSASVGDRVTINCKASQNINKYLDWYQQKLGEGPKLLIYYTNNLHTGIPSRFSGSGSGTDFTLTISSLQPEDVATYFCLQHDSGYTFGAGTKLELKR
notes: as for B1
Turning to B4, the concentration giving a half-maximal response (EC50) in assay [1] was above 133 nM.

B5: anti-E-selectin antibody 0170 chimera (antibody, human IgG1, kappa, V domains shown)
VH: EVQLQQSGAELGKPGTSVKLSCKVSGYSIRSTYMHWVNQRPGKGLEWVGRIDPANGNTIYAERFKNKATLTADTSSNTAYMQLSQLKSDDTAIYFCAVEILGIFDYWGQGVMVTVSS
VL: DIQMTQSPSFLSASVGDRVTINCKASQNIDKYLDWYQQKLGEAPKLLMYNTNSLHTGIPSRFSGSGSGTDFTLTISSLQPEDVATYFCLQHNSGYTFGAGTKLELKR
notes: as for B1
B5 registered an EC50 in assay [1] above 133 nM.

B6: humanized anti-E-selectin antibody 0841 (antibody, human IgG1, kappa, V domains shown)
VH: EVQLVESGGGLVQPGGSLRLSCAASGYNIRSSYMHWVRQAPGKGLEWVARIDPANGNTIYAEKFKIRFTISADNAKNSAYLQMNSLRAEDTAVYYCAMDLYSTSEYWGQGTLVTVSS
VL: DIQMTQSPSSLSASVGDRVTITCKTSQNINRYLNWYQQKPGKAPKLLIYNANSLQTGVPSRFSGSGSGTDFTLTISSLQPEDFATYFCLQDNSWPLTFGQGTKVEIKR
notes: effector-null human IgG1, kappa
Consider B6, for which, in assay [2], the binding result was “no binding (tested: 10 ug/ml)”.

B7: optimized anti-E-selectin antibody 1282 (antibody, human IgG1, kappa, V domains shown)
VH: EVQLVESGGGLVQPGGSLRLSCAASGYAIRSAYMHWVRQAPGKGLEWVARIDPANGNTIYVDSVEGRFTISADNAKNSAYLQMNSLRAEDTAVYYCAMDLYSTSEYWGQGTLVTVSS
VL: DIQMTQSPSSLSASVGDRVTITCKTSQNIERYLNWYQQKPGKAPKLLIYAASSLQSGVPSRFSGSGSGTDFTLTISSLQPEDFATYFCLQDNAWPLTFGQGTKVEIKR
notes: as for B6
As to B7, the binding result in assay [2] is reported as “no binding (tested: 10 ug/ml)”. Also, in assay [3], the “IC50 (read off the curve)” value is around 10 nM.

B8: optimized anti-E-selectin antibody 1444 (antibody, human IgG1, kappa, V domains shown)
VH: EVQLVESGGGLVQPGGSLRLSCAASGYAIRSAYMHWVRQAPGKGLEWVARIDPANGNTIYVDSVTGRFTISADNAKNSAYLQMNSLRAEDTAVYYCAMDLYSTSEYWGQGTLVTVSS
VL: DIQMTQSPSSLSASVGDRVTITCKTSQNIERYLNWYQQKPGKAPKLLIYAASSLQSGVPSRFSGSGSGTDFTLTISSLQPEDFATYFCLQDNAWPLTFGQGTKVEIKR
notes: as for B6
Consider B8, for which, in assay [2], the binding result is “no binding (tested: 10 ug/ml)”. In assay [3], the “IC50 (read off the curve)” value was around 10 nM.

B9: optimized anti-E-selectin antibody 1284 (antibody, human IgG1, kappa, V domains shown)
VH: EVQLVESGGGLVQPGGSLRLSCAASGYAIRSAYMHWVRQAPGKGLEWVARIDPANGNTIYVESVEGRFTISADNAKNSAYLQMNSLRAEDTAVYYCAMDLYSTSEYWGQGTLVTVSS
VL: DIQMTQSPSSLSASVGDRVTITCKTSQNIERYLNWYQQKPGKAPKLLIYAASSLQSGVPSRFSGSGSGTDFTLTISSLQPEDFATYFCLQDNAWPLTFGQGTKVEIKR
notes: as for B6
As to B9, in assay [2], the binding result is “no binding (tested: 10 ug/ml)”. The “IC50 (read off the curve)” value in assay [3] was around 10 nM.

B10: optimized anti-E-selectin antibody 1448 (antibody, human IgG1, kappa, V domains shown)
VH: EVQLVESGGGLVQPGGSLRLSCAASGYAIRSAYMHWVRQAPGKGLEWVARIDPANGNTIYVDSVKERFTISADNAKNSAYLQMNSLRAEDTAVYYCAMDLYSTSEYWGQGTLVTVSS
VL: DIQMTQSPSSLSASVGDRVTITCKTSQNIERYLNWYQQKPGKAPKLLIYAASSLQSGVPSRFSGSGSGTDFTLTISSLQPEDFATYFCLQDNAWPLTFGQGTKVEIKR
notes: as for B6
As to B10, in assay [2], the binding result is reported as “no binding (tested: 10 ug/ml)”. In addition, the “IC50 (read off the curve)” value in assay [3] is around 9 nM.

B11: anti-E-selectin antibody 0039 chimera (antibody, human IgG1, kappa, V domains shown)
VH: QVQLKETGPGLVQPTQTLSITCTVSGFSLTGYYMQWVRQTPGKGLEWMGFIRSSGSTEYNSEFKSRLSISRDTSKNQVFLKMNSLKTEDTGVYYCARCPYKYSSFVYVGVMDAWGQGAPVTVSS
VL: EIVMTQSPTSMSTSIGERVTLNCKASQTVGINVDWYQQTPGQPPKLLIYGASNRHTGVPDRFTGSGFGRDFTLTISNVEAEDLAVYCCLQYGSIPHTFGPGTKLELKR
notes: as for B1
With B11, the half-maximal effective concentration (EC50) in assay [1] was above 133 nM.
